Reference: patent publication US20150140018A1 (MEDICAL AND BIOLOGICAL LABORATORIES, published 2015)

Target: T1, CXADR protein on human prostate cancer cells (LNCaP-CR, DU-145) (human, UniProt P78310 20-365)
T1 construct: whole, on cells; Endogenous CXADR; also called coxsackievirus and adenovirus receptor; CAR
T1 sequence (looked up): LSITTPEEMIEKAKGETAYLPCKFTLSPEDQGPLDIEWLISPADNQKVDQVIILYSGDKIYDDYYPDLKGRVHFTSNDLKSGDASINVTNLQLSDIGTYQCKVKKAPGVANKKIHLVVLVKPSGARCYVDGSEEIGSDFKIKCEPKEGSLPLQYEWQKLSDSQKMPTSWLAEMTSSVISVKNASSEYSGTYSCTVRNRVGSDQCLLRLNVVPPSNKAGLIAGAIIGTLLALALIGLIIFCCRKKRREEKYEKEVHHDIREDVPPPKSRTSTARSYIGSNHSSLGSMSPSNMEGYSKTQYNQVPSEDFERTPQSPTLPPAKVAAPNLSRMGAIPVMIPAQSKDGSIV
Test: flow cytometry, purified antibody at 5 ug/mL on LNCaP-CR and DU-145 cells that express CXADR

binding result: binds
B1: anti-CXADR antibody 7F8A (antibody, V domains shown)
VH: DVQLQESGPGLVKPSQTVSLTCTVTGYSITNGNHWWNWIRQVSGSKLEWIGYINSSGSTDSNPSLKSRISITRDTSKNQLFLQLNSVTIEDIATYYCARDDYYFDYWGQGTTLTVSS
VL: DIQMTQSPASLSASVGETVTITCRASENIDSYLAWYQQKQGKSPQLLVYAATLLADGVPSRFSGSGSGTQYSLKINSLQSEDVARYYCQHYYSTPLTFGAGTKLELKR
notes: also called 7F8A clone
